Numbering of substitutions follows the chain as printed. In names and notes the source's numbering stands.
T1: YojK (Bacillus subtilis, UniProt O31853)
T1 construct: codon-optimized synthetic gene in pET-21b(+), E. coli BL21(DE3), Ni-NTA and Superdex 200; M1-M405 described; two monomers per asymmetric unit
T1 sequence (O31853 1-405): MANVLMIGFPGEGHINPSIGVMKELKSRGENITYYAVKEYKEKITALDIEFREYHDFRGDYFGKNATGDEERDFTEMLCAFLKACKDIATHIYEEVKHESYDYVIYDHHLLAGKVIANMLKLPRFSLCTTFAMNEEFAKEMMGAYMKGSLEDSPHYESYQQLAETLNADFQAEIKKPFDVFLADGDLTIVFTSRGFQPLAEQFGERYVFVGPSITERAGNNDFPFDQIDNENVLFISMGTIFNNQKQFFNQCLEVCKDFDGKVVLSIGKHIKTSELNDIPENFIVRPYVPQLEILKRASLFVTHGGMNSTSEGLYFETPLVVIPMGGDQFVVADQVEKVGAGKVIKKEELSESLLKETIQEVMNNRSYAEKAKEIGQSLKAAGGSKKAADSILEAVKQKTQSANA

B1: YojK (Bacillus subtilis subsp. subtilis str. 168) (protein)
chain: T1 sequence (O31853 1-405)
B2: YojK (Bacillus subtilis subsp. subtilis str. 168; G326F) (protein)
chain: T1 sequence (O31853 1-405) with G326F
B3: YojK (Bacillus subtilis subsp. subtilis str. 168; I241T) (protein)
chain: T1 sequence (O31853 1-405) with I241T
B4: YojK (Bacillus subtilis subsp. subtilis str. 168; G326F/I241T) (protein)
chain: T1 sequence (O31853 1-405) with I241T, G326F
B5: YojK (Bacillus subtilis subsp. subtilis str. 168; G327N) (protein)
chain: T1 sequence (O31853 1-405) with G327N
B6: YojK (Bacillus subtilis subsp. subtilis str. 168; G327N/I241T) (protein)
chain: T1 sequence (O31853 1-405) with I241T, G327N

These molecules were tested against T1, YojK (assay: X-ray crystal structure, […] Å). Conditions: co-crystallised with 5 mM UDP, pH 8.0, 18°C; sugar donor site.
Assay type: binding

Molecule | X-ray crystal structure, 1.90 Å
O=c1ccn([C@@H]2O[C@H](COP(=O)(O)OP(=O)(O)O)[C@@H](O)[C@H]2O)c(=O)[nH]1 [UDP] | we solved the crystal structure of YojK in complex with uridine diphosphate (UDP)

The molecules below were run on C=C1C[C@@]23CC[C@H]4[C@@](C)(CCC[C@@]4(C)C(=O)O[C@@H]4O[C@H](CO)[C@@H](O)[C@H](O)[C@H]4O)[C@@H]2CC[C@]1(O[C@@H]1O[C@H](CO)[C@@H](O)[C@H](O[C@@H]2O[C@H](CO)[C@@H](O)[C@H](O)[C@H]2O)[C@H]1O[C@@H]1O[C@H](CO)[C@@H](O)[C@H](O)[C@H]1O)C3 (assay: purified protein). Conditions: 5 mM UDPG, 10 mM MnCl2, 50 mM Tris-HCl pH 8.0, 35°C, 20 min, Reb A 0.05-0.7 mM.

Molecule | Km [µM] | kcat [s⁻¹] | kcat/Km [M⁻¹ s⁻¹]
B1 | 210.52 ± 11.70 | 0.018 | 85.5
B2 | 290.16 ± 8.34 | 0.154 | 528
B3 | 197.74 ± 9.25 | 0.0223 | 113
B4 | 347.63 ± 24.23 | 0.258 | 741
B5 | 176.23 ± 10.62 | 0.0837 | 475
B6 | 193.07 ± 7.30 | 0.179 | 929
